Key:
[1] = Solubility and stability of CPT-K3 in borate buffer precursor solution; assay type: physicochemical
From the text: Referring now to FIG. 3, CPT-K3 remains stable in a clear precursor solution.

U87 glioblastoma cells = assay: In vitro cytotoxicity, cell viability by SRB method; assay type: cell-based, human; conditions: CPT compared with CPT-K3
Protocol: FIG. 10A is a table providing the IC50 of CPT and CPT-K3. FIG. 10B is a plot of cell viability (%) vs. concentration;
FIG. 10A is a table providing the IC50 of CPT and CPT-K3. FIG. 10B is a plot of cell viability (%) vs. concentration. In this example, cell viability (%) was determined using the SRB method.

Compound: CC[C@@]1(OC(=O)CCC(=O)N[C@@H](CCCCN)C(=O)N[C@@H](CCCCN)C(=O)N[C@@H](CCCCN)C(=O)O)C(=O)OCc2c1cc1n(c2=O)Cc2cc3ccccc3nc2-1 [CPT-K3]
- stability in borate buffer (time stable) ([1]; 75-mM borate buffer): at least 24 hours
- solubility in borate buffer ([1]; borate buffer): good solubility
- cytotoxicity against the U87 glioblastoma cell line (U87 glioblastoma cells): comparable cytotoxicity

Compound: CC[C@@]1(O)C(=O)OCc2c1cc1n(c2=O)Cc2cc3ccccc3nc2-1 [CPT, camptothecin, reference compound]
- cytotoxicity against the U87 glioblastoma cell line (U87 glioblastoma cells): comparable cytotoxicity

From patent publication US20250032627A1, “T[…] BASED UPON DRUG CONJUGATES” (priority 2023, published 2025)
